These results are taken from patent publication US8357523B2, “Beta-glucosidase variant enzymes and related polynucleotides” (Codexis, Inc., priority 2009, dated 2013).

Substitutions are numbered along the chain they refer to.

B1: 1 (protein)
chain: STAIAQEGAAPAAILHPEKWPRPATQRLIDPAVEKRVDALLKQLSVEEKVGQVIQGDIGTITPEDLRKYPLGSILAGGNSGPNGDDRAPPKEWLDLADAFYRVSLEKRPGHTPIPVLFGIDAVHGHGNIGSATIFPHNIALGATHDPELLRRIGEVTAVEMAATGIDWTFAPALSVVRDDRWGRTYEGFSEDPEIVAAYSAAIVESVQGKFGSKDFMAPGRIVASAKHFLADGGTDQGRDQGDARISEDELIRIHNAGYPPAIDAGVLTVMASFSSWQGIKHHGHKQLLTDVLKGQMGFNGFIVGDWNAHDQVPGCTKFNCPTSLIAGLDMYMAADSWKQLYENTLAQVKDGTIPMARLDDAVRRILRVKVLAGLFEKPAPKDRPGLPGLETLGSPEHRAVGREAVRKSLVLLKNDKGTLPLSPKARVLVAGDGADNIGKQSGGWTISWQGTGNRNDEFPGATSILGGIRDAVADAGGSVEFDVAGQYKTKPDVAIVVFGEEPYAEFQGDVETLEYQPDQKQDLALLKKLKDQGIPVVAVFLSGRPMWVNPELNASDAFVAAWLPGTEGGGVADVLFTDKAGKVQHDFAGKLSYSWPRTAAQTTVNRGDADYNPLFAYGYGLTYKDKSKVGTLPEESGVPAEARQNAGIYFRAGALRLPGRFL
B2: 4 (protein)
chain: B1 chain with S206G, D311G, D532G, T599A
B3: 9 (protein)
chain: B1 chain with A201G, S206G
B4: 20 (protein)
chain: B1 chain with A198N, S206G
B5: 24 (protein)
chain: B1 chain with S206G, P219V
B6: 10 (protein)
chain: B1 chain with A198M, S206G
B7: 12 (protein)
chain: B1 chain with A202N, S206G
B8: 5 (protein)
chain: B1 chain with H145R, S206G
B9: 19 (protein)
chain: B1 chain with A198L, S206G
B10: 7 (protein)
chain: B1 chain with S206G, F211Y
B11: 15 (protein)
chain: B1 chain with R151P, S206G
B12: 25 (protein)
chain: B1 chain with R151P, S206G
B13: 8 (protein)
chain: B1 chain with A162T, S206G
B14: 23 (protein)
chain: B1 chain with A202P, S206G
B15: 22 (protein)
chain: B1 chain with V159I, S206G
B16: 17 (protein)
chain: B1 chain with S206G, P219M
B17: 2 (protein)
chain: B1 chain with N128K, S206G
B18: 6 (protein)
chain: B1 chain with A162S, S206G
B19: 18 (protein)
chain: B1 chain with V159A, S206G
B20: 13 (protein)
chain: B1 chain with A198C, S206G
B21: 26 (protein)
chain: B1 chain with A202F, S206G
B22: 21 (protein)
chain: B1 chain with V159Q, S206G
B23: 3 (protein)
chain: B1 chain with S206G, Q287E
B24: 16 (protein)
chain: B1 chain with A198S, S206G
B25: 27 (protein)
chain: B1 chain with A202Y, S206G
B26: 11 (protein)
chain: B1 chain with V159L, S206G
B27: 14 (protein)
chain: B1 chain with D146S, S206G

The nature of this data set: High throughput cellobiose assay: fold improvement in cellobiase activity of CelA variants over a control enzyme (Tables 2A-2D, 3, 5, 6, 7). Type of data set: biochemical. The conditions noted are these: 3.3 g/l cellobiose, 50° C. and pH 6.5; compared to native CelA (SEQ ID NO: 4). As to the method:
β-glucosidase activity was also determined using a cellobiose assay, which used cellobiose as substrate. In a total volume of 100 μL, 25 μL clear media supernatant containing CelA enzyme was added to 10 g/L cellobiose (Fluka Cat. No. 22150, Sigma-Aldrich, Inc., St. Louis, Mo.) in 100 mM sodium phosphate buffer (pH 6-7) or sodium acetate buffer (pH 5-5.5). The reaction was incubated at 45-70° C. for an appropriate time (25 minutes to overnight depending on the enzyme concentration) while shaking. Glucose production was determined using an enzymatic glucose assay (K-GLUC, Megazyme, Ireland). 10 μl of each reaction was added to 190 μl GOPOD reagent (supplied as part of the K-GLUC assay kit). The reaction was incubated at 45° C. for 20 minutes and the absorbance of the solution was measured at 510 nm. The GOPOD reagent contains 50 mM Potassium phosphate buffer pH7.4, 0.011M p-hydroxybenzoic acid, 0.008% w/v sodium azide, glucose oxidase (>12,000 U/L), peroxidase (>650 U/L) and 80 mg/L 4-aminoantipyrine. The glucose oxidase enzyme in the reagent reacts with any glucose present in the sample and produces hydrogen peroxide which then reacts with the 4-aminoantipyrine to produce a quinoneimine dye in quantities proportionate with the amount of glucose present and can be measured spectrophotometrically at 510 nm. Detectable β-glucosidase activity was observed under high throughput screening conditions (i.e., pH 7, 50° C.).
Plasmid libraries containing variant CelA genes were transformed into B. megaterium and plated on Luria-Bertani (LB) agar plates containing 3 μg/mL tetracycline with a DM3 regeneration media overlay (400 mM sodium succinate dibasic, pH 7.3, 0.5% casamino acids, 0.5% yeast extract, 0.4% K2HPO4, 0.2% KH2PO4, 20 mM MgCl2, 0.5% glucose and 0.2% BSA). After incubation for at least 18 hours at 30° C., colonies were picked using a Q-bot® robotic colony picker (Genetix USA, Inc., Beaverton, Oreg.) into shallow, 96-well well microtiter plates containing 180 μL, LB and 10 μg/mL tetracycline. Cells were grown overnight at 37° C. with shaking at 200 rpm and 85% humidity. 10 μL of this culture was then transferred into 96-well microtiter plates (deep well) containing 390 μL A5-glucose-xylose medium and 10 μg/mL tetracycline as described in example 2. The plates were then incubated at 37° C. with shaking at 250 rpm and 85% humidity overnight (˜18-24 hours). The deep plates were centrifuged at 4000 rpm for 15 minutes and the clear media supernatant containing the secreted CelA enzyme was used for the high throughput pNPG or cellobiose assay of Example 5.
The CelA libraries were screened in high throughput using the cellobiose assay of Example 5 (Substrate: cellobiose; pH: 5-7; temperature: 45-72° C.; time: 2-24 hrs) for the identification of improved variants.
In shallow, 96-well microtiter plates 25 μL of media supernatant was added to 75 μL of […] cellobiose in 150 mM sodium acetate buffer pH 5-5.5 or 150 mM sodium phosphate buffer pH6-7. After sealing with aluminum/polypropylene laminate heat seal tape (Velocity 11 (Menlo Park, Calif.), Cat#06643-001), the plates were shaken at 45-65° C. for up to 24 hrs. The plates were centrifuged for 5 minutes at 4000 rpm. In shallow well clear microtiter plates, 10 μL of the reaction mixture was added to 190 μL of GOPOD reagent (as in example 5B) per well. The solutions were incubated at 45° C. for 1 hour and absorbance was measured at 510 nm for the identification of active CelA variants.
Improved CelA variants were identified from the high throughput screening of various CelA variant libraries as described in Example 7, using the cellobiose assay of Example 5 using 3.3 g/l cellobiose at temperatures from 50°-55° C. at a pH in the range of 5.3-6.5. Tables 2A, 2B, 2C, and 2D and Table 3 depict the improvement in activities of CelA variants encompassed by the invention. The assay conditions are indicated in each table. […]
B1: the “Fold improvement over wildtype CelA” value is “+ (+ = 1.1 to 2.0 fold improvement over native CelA (SEQ ID NO: 4))”. The value for B2 was “+ (+ = 1.1 to 2.0 fold improvement over native CelA (SEQ ID NO: 4))”; that for B3 was “+ (+ = 1.1 to 2.0 fold improvement over native CelA (SEQ ID NO: 4))”. The result for B4 reads “+ (+ = 1.1 to 2.0 fold improvement over native CelA (SEQ ID NO: 4))”. With B5, the “Fold improvement over wildtype CelA” value is “+ (+ = 1.1 to 2.0 fold improvement over native CelA (SEQ ID NO: 4))”. The result for B6 reads “+ (+ = 1.1 to 2.0 fold improvement over native CelA (SEQ ID NO: 4))”. The value for B7 was “+ (+ = 1.1 to 2.0 fold improvement over native CelA (SEQ ID NO: 4))”; that for B8 was “+ (+ = 1.1 to 2.0 fold improvement over native CelA (SEQ ID NO: 4))”; that for B9 was “+ (+ = 1.1 to 2.0 fold improvement over native CelA (SEQ ID NO: 4))”.

As for B10, the “Fold improvement over wildtype CelA” value is on record as “++ (++ = 2.1 to 2.6 fold improvement over native CelA (SEQ ID NO: 4))”. Consider B11, for which the “Fold improvement over wildtype CelA” value is “+ (+ = 1.1 to 2.0 fold improvement over native CelA (SEQ ID NO: 4))”. Regarding B12, the “Fold improvement over wildtype CelA” value was “+ (+ = 1.1 to 2.0 fold improvement over native CelA (SEQ ID NO: 4))”. The result for B13 reads “+ (+ = 1.1 to 2.0 fold improvement over native CelA (SEQ ID NO: 4))”; that for B14, “+ (+ = 1.1 to 2.0 fold improvement over native CelA (SEQ ID NO: 4))”. As to B15, the “Fold improvement over wildtype CelA” value is on record as “+ (+ = 1.1 to 2.0 fold improvement over native CelA (SEQ ID NO: 4))”.

As for B16, the “Fold improvement over wildtype CelA” value is reported as “+ (+ = 1.1 to 2.0 fold improvement over native CelA (SEQ ID NO: 4))”. The value for B17 was “+ (+ = 1.1 to 2.0 fold improvement over native CelA (SEQ ID NO: 4))”; that for B18 was “+ (+ = 1.1 to 2.0 fold improvement over native CelA (SEQ ID NO: 4))”; that for B19 was “+ (+ = 1.1 to 2.0 fold improvement over native CelA (SEQ ID NO: 4))”. In the case of B20, the “Fold improvement over wildtype CelA” value is “+ (+ = 1.1 to 2.0 fold improvement over native CelA (SEQ ID NO: 4))”.

Regarding B21, the “Fold improvement over wildtype CelA” value was “+ (+ = 1.1 to 2.0 fold improvement over native CelA (SEQ ID NO: 4))”. The value for B22 was “+ (+ = 1.1 to 2.0 fold improvement over native CelA (SEQ ID NO: 4))”; that for B23 was “+ (+ = 1.1 to 2.0 fold improvement over native CelA (SEQ ID NO: 4))”; that for B24 was “+ (+ = 1.1 to 2.0 fold improvement over native CelA (SEQ ID NO: 4))”. The result for B25 reads “+ (+ = 1.1 to 2.0 fold improvement over native CelA (SEQ ID NO: 4))”; that for B26, “+ (+ = 1.1 to 2.0 fold improvement over native CelA (SEQ ID NO: 4))”; that for B27, “++ (++ = 2.1 to 2.6 fold improvement over native CelA (SEQ ID NO: 4))”.
